Tested on: Bacillus subtilis
Test: cleaved RNA product abundance (RNA/gDNA barcode ratio) relative to median wild-type variant (ratio to wild type); higher = more accumulation of the downstream cleavage product
Method in brief: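 Sequencing of barcodes from gel-selected, reverse-transcribed cleaved RNA and from genomic DNA, with UMI collapsing, yielded a per-construct RNA:gDNA ratio. Scaled to the median construct with the unmutated site, this ratio is the cleaved product abundance. The barcoded reporters (truncated aprE or tetM mRNAs with mutagenized RNase Y cleavage-site windows) were integrated into the B. subtilis chromosome, and cultures grew in LB at 37°C from OD600 0.0003 to 0.3.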

[1] = experiment (reporter, strain, medium): exp 4a: truncated aprE reporter, strain BJT201 with 2% xylose (RNase J1 expressed), cleavage site: cggR-gapA (positions -7 to +36 mutated)
[2] = experiment (reporter, strain, medium): exp 8a: truncated aprE reporter, strain BJT201 with 2% xylose (RNase J1 expressed), cleavage site: glnRA (positions -5 to +31 mutated)
[3] = experiment (reporter, strain, medium): exp 2b: truncated aprE reporter, strain BJT200, cleavage site: cggR-gapA (positions -7 to +36 mutated)

Row | Sequence | cleaved RNA product abundance [1] | cleaved RNA product abundance [2] | cleaved RNA product abundance [3]
1 | ACAGACGAAGGAGCCGCAAAGAAGTTATTAAGGGATGAATAATCCCTCTATCTAAATATCTCTCACTTATTTAAA | 0.101 |  | 
2 | CGACATGTCCCGCTTCTTTCATTAATCCGTTAGCAACTGTTTTGCTATATACAGTTACCTTTTAAGAGGAGGAAT |  | 0.464 | 
3 | ACAGACGAAGGAGCCGCAAAGAAGTTATTAAGGGATGAATAATCCGTCAATATAGATATCTCTCACTTATTTAAA | 0.314 |  | 
4 | ACAGACGAAGGAGCCGCAAAGAAGTCATAAAGGGATGAATAATCCCTCAATATAAATATCTCTCACTTATTTAAA | 0.198 |  | 
5 | ACAGACGAAGGAGCCGCAAAGAAGTTACTAAGGGATGGATAATCCCTCAATATAAATATCTCTCACTTATTTAAA | 0.208 |  | 
6 | CGACATGTCCCGCTTCTTTCATTAATCCGTTAGCAAATGTTTTTCTATATACATTTACCTTTTAAGAGGAGGAAT |  | 0.753 | 
7 | ACAGACGAAGGAGCCGCAAAGAATTTATTAAGGGAGGAATAATCCCTCAATATAAATATCTCTCACTTATTTAAA | 0.459 |  | 
8 | ACAGACGAAGGAGCCGCAAAGAAGTTATTATGGGATGAATAATCCCTCAACATAAATATCTCTCACTTATTTAAA | 0.361 |  | 
9 | ACAGACGAAGGAGCCGCAAAGAAGCTATTAAGGGATGAATAATTCCTCAATATAAATATCTCTCACTTATTTAAA |  |  | 0.432
10 | ACAGACGAAGGAGCCGCAAAGAAGTCATTAAGCGATGAATAATCCCTCAATATAAATATCTCTCACTTATTTAAA | 0.0665 |  | 
11 | CGACATGTCCCGCTTCTTTCATTAATCCGTTATCAACTGTTTTGCTGTATACATTTACCTTTTAAGAGGAGGAAT |  | 0.192 | 
12 | ACAGACGAAGGAGCCGCAAAAAAGTTATTAAGGGATGAATAATCCTTCAATATAAATATCTCTCACTTATTTAAA | 0.678 |  | 0.395
13 | CGACATGTCCCGCTTCTTTCATTATTACGTTACCAACTATTTTGCTATATACATTTATCTTTTAAGAGGAGGAAT |  | 0.242 | 
14 | ACAGACGAAGGAGCCGCAAAGAAGTTATTAAAGGATGAATAATCCCTCAATATATATATCTCTCACTTATTTAAA | 0.16 |  | 
15 | ACAGACGAAGGAGCCGCAAAGAACTTATCAAGGGATGAATAATCCCTCAATATAAATATCTCTCACTTATTTAAA | 0.32 |  | 
16 | CGACATGTCCCGCTTCTTTCATTAATCCGTTAGCAACTGTTATGATATATACATTTACCTTTTAAGAGGAGGAAT |  | 0.387 | 
17 | ACAGACGAAGGAGCCGCAAAGAAGTTATTAAGGGATGACTAATCCCTAAATATAAATATCTCTCACTTATTTAAA | 0.359 |  | 
18 | ACAGACGAAGGAGCCGCAAAGAAGTTATTGAGGGATGAATACTCCCTCAATATAAATATCTCTCACTTATTTAAA | 0.0909 |  | 
19 | ACAGACGAAGGAGCCGCAAAGAAGTTATTAAGGCATGAATATTCCCTCAATATAAATATCTCTCACTTATTTAAA | 0.144 |  | 0.119
20 | CGACATGTCCCGCTTCTTTCATTAATCCATTAGCAATTGTTTTGCTATATACATTTACCTTTTAAGAGGAGGAAT |  | 0.776 | 
21 | ACAGACGAAGGAGCCGCAAAGAAGTTATTAAGGGATGAATAATACGTCAATATAAATATCTCTCACTTATTTAAA | 0.0816 |  | 0.0926

Row | Sequence | cleaved RNA product abundance [1] | cleaved RNA product abundance [2] | cleaved RNA product abundance [3]
22 | ACAGACGAAGGAGCCGCAAAGGAGTTATTAAGAGATGAATAATCCCTCAATATAAATATCTCTCACTTATTTAAA | 0.199 |  | 
23 | CGACATGTCCCGCTTCTTTCATTAATCCGTTAGCAACTATTTTACTATATACATTTACCTTTTAAGAGGAGGAAT |  | 0.726 | 
24 | ACAGACGAAGGAGCCGCAAAGAAGTTATTAAGGGATGAATAATCCCTTAATATAAACATCTCTCACTTATTTAAA | 0.216 |  | 0.304
25 | ACAGACGAAGGAGCCGCAAAGAAGTTATTAAGGGATGGATAATACCTCAATATAAATATCTCTCACTTATTTAAA | 0.103 |  | 
26 | ACAGACGAAGGAGCCGCAAAGAAGTTATTAAGGGATGAATAATCCCACAATATAAAAATCTCTCACTTATTTAAA | 0.25 |  | 
27 | ACAGACGAAGGAGCCGCACAGAATTTATTAAGGGATGAATAATCCCTCAATATAAATATCTCTCACTTATTTAAA | 0.488 |  | 0.544
28 | CGACATGTCCCGCTTCTTTCATTAATCCGTTTGCAACTGTTTTGCTACATACATTTACCTTTTAAGAGGAGGAAT |  | 0.623 | 
29 | ACAGACGAAGGAGCCGCAAAGTAGTTATTAAGGGATGAATAATCCTTCAATATAAATATCTCTCACTTATTTAAA | 0.543 |  | 
30 | ACAGACGAAGGAGCCGCAAAGAAGTTATTAAGGGATGAATAATCCCTCAATTTATATATCTCTCACTTATTTAAA | 0.2 |  | 
31 | ACAGACGAAGGAGCCGCAAAGAAGTTATTAAGTGATGAATAATCCCTCAATACAAATATCTCTCACTTATTTAAA | 0.057 |  | 0.102
32 | ACAGACGAAGGAGCCGCAAAGAAGTTATTAAGGTATGAATAATCCCTCGATATAAATATCTCTCACTTATTTAAA | 0.0744 |  | 0.0823
33 | ACAGACGAAGGAGCCGCAAAGAAGTTATTAAGGGATGAGTAAACCCTCAATATAAATATCTCTCACTTATTTAAA | 0.35 |  | 
34 | ACAGACGAAGGAGCCGCAAAGAAGATATTAAGGGATGAATAATCCCCCAATATAAATATCTCTCACTTATTTAAA | 0.32 |  | 
35 | ACAGACGAAGGAGCCGCAAAGAAGTTATTAAGAGATGTATAATCCCTCAATATAAATATCTCTCACTTATTTAAA | 0.229 |  | 
36 | CGACATGTCCCGCTTCTTTCATTATTCCGTGAGCAACTGTTTTTCTATATACATTTACCTTTTAAGAGGAGGAAT |  | 0.407 | 
37 | ACAGACGAAGGAGCCGCAAAGAAGTTATTAGGGGATGAATAATACCTCAATATAAATATCTCTCACTTATTTAAA | 0.211 |  | 
38 | CGACATGTCCCGCTTCTTTCATTAATCCGTTACCAACTGTTTTGCTATATACATCTACCTTTTAAGAGGAGGAAT |  | 0.23 | 
39 | ACAGACGAAGGAGCCGCAAAGAAATTATTAAGAGATGAATAATCCCTCTATATAAATATCTCTCACTTATTTAAA | 0.117 |  | 
40 | ACAGACGAAGGAGCCGCAACGAAGTTATTAAGGGATGAATAATCCCTCAATATAAATCTCTCTCACTTATTTAAA | 0.538 |  | 
41 | ACAGACGAAGGAGCCGCAAAGAAGTAATTAAGGGATGAATAATGCCTCAATATAAATATCTCTCACTTATTTAAA | 0.164 |  | 
42 | CGACATGTCCCGCTTCTTTCATTAATCCGTTAGCAACTGTTTGCTATATACATTTACCTTTTAAGAGGAGGAATT |  | 1.42 | 

Row | Sequence | cleaved RNA product abundance [1] | cleaved RNA product abundance [2] | cleaved RNA product abundance [3]
43 | ACAGACGAAGGAGCCGCAAAGAAGTAATTAAGGAATGAATAATCCCTCAATATAAATATCTCTCACTTATTTAAA | 0.0879 |  | 0.0931
44 | ACAGACGAAGGAGCCGCAAAGAAGTTATTAAGGGATGAATACTCCCTAAATATAAATATCTCTCACTTATTTAAA |  |  | 0.366
45 | ACAGACGAAGGAGCCGCAAAGAAGTTATTAAGGGAATGAATAATCCCTCAATATAAATATCTCTCACTTATTTAA | 0.604 |  | 
46 | CGACATGTCCCGCTTCTTTCATTAATCCTTTAGCAACTGATTTGCTATATACATTTACCTTTTAAGAGGAGGAAT |  | 0.509 | 
47 | ACAGACGAAGGAGCCGCAAAGAAGTAATTAAGGGATGAAAAATCCCTCAATATAAATATCTCTCACTTATTTAAA | 0.272 |  | 0.163
48 | CGACATGTCCCGCTTCTTTCATTAATCCGTTAGCAACTGTTTTTATATATACATTTACCTTTTAAGAGGAGGAAT |  | 0.669 | 
49 | CGACATGTCCCGCTTCTTTCATTAATCCATTAGAAACTGTTTTGCTATATACATTTACCTTTTAAGAGGAGGAAT |  | 0.244 | 
50 | ACAGACGAAGGAGCCGCAAAGAAGTTAATAAGGGATGAATAATCCCTCAATATAAATGTCTCTCACTTATTTAAA | 0.303 |  | 
51 | ACAGACGAAGGAGCCGCAAAGACGTTATTAAGGGATTAATAATCCCTCAATATAAATATCTCTCACTTATTTAAA | 0.857 |  | 0.747
52 | ACAGACGAAGGAGCCGCAAAGAAGTTATTAAGGGATGAATAATCCCTCAATTTAAATGTCTCTCACTTATTTAAA | 0.048 |  | 
53 | ACAGACGAAGGAGCCGCAAAGGAGTTATTAAGGGATAAATAATCCCTCAATATAAATATCTCTCACTTATTTAAA | 0.789 |  | 0.828
54 | ACAGACGAAGGAGCCGCAAGGTAGTTATTAAGGGATGAATAATCCCTCAATATAAATATCTCTCACTTATTTAAA | 1 |  | 
55 | ACAGACGAAGGAGCCGCAAAGAAGTTATTAAGGGATGAATAATCCCTCAATATAAATATCTCTCCTTATTTAAAG |  |  | 0.315
56 | CGACATGTCCCGCTTCTTTCATTAATCCGCGAGCAACTGTTTTGCTATATACATTTACCTTTTAAGAGGAGGAAT |  | 0.318 | 
57 | ACAGACGAAGGAGCCGCAAAGAAGTTATTAAGGTATGAATAATCCCTCAATATAACTATCTCTCACTTATTTAAA | 0.102 |  | 
58 | ACAGACGAAGGAGCCGCAAAAAAGTTATTAATGGATGAATAATCCCTCAATATAAATATCTCTCACTTATTTAAA | 0.149 |  | 0.0715
59 | CGACATGTCCCGCTTCTTTCATTAATCCGTTATCAACTGTTTTGCTATATACATTTACCTTTTAAGAGGAGGAAT |  | 0.298 | 
60 | CGACATGTCCCGCTTCTTTCATTAATCCGTTAGCAATTTTTTTGCTATATACATTTACCTTTTAAGAGGAGGAAT |  | 1.16 | 
61 | ACAGACGAAGGAGCCGCAAAGAAGTTATTAAGGGATGTATAAACCCTCAATATAAATATCTCTCACTTATTTAAA | 0.592 |  | 0.448
62 | ACAGACGAAGGAGCCGCAAAGAAGTTATTAAGGAATGAATAATCCCTCAATATAAAAATCTCTCACTTATTTAAA | 0.161 |  | 0.127

From the supplement of paper PMC11780869
